These results are taken from PMC8519905, “Reproducibility and accuracy of microscale thermophoresis in the NanoTemper Monolith: a multi laboratory benchmark study” (European Biophysics Journal, 2021).

Several values for one entry are separate records, joined by “and”; a condition that tells them apart may be missing. Identical values can stand only once.

The target in test [1] is T1, unlabeled lysozyme (Gallus gallus, UniProt P00698).
T1 construct: gene LYZ; native hen egg white lysozyme (mature chain, signal peptide removed), unlabelled; source printed for the stock used for labelling
T1 sequence (P00698 19-147): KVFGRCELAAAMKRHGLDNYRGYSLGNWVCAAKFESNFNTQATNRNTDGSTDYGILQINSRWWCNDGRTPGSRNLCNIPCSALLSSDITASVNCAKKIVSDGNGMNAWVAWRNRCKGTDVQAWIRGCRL
Description: label-free microscale thermophoresis (NT.LabelFree). Particulars: unlabelled protein; buffer not printed in main text for this test. Format: binding. In general terms: MST reads how a fluorescent partner responds to local heating, with and without ligand.

The target of test [2] is T2, Lysozyme isolated from hen egg white, labeled with RED-NHS 2nd generation dye (Gallus gallus (hen egg white), UniProt P00698, RED-NHS 2nd generation dye, amine reactive; degree of labeling ~0.70).
T2 construct: lysozyme isolated from hen egg white (ROCHE Cat.No. 10837059001); also called labeled lysozyme; red labeled lysozyme; source: bought: ROCHE Cat.No. 10837059001 (isolated from hen egg white); labeled with the Monolith NT Protein Labeling Kit RED-NHS 2nd Generation
T2 sequence (P00698 19-147): as above
Description: other fluorescence titration; analysis of the absolute (initial) fluorescence of the same Monolith datasets; RED-NHS labeled lysozyme as target, nanobody as titrated ligand; PBS+; triplicates on 40 instruments; means over instruments; analysed centrally with MOAA and PALMIST and by 8 of 40 users. To be noted: both partners purified.

Test [3] addresses T2, Lysozyme isolated from hen egg white, …. Description: MST; TRIC analysis of the MST/TRIC time trace; RED-NHS labeled lysozyme as target, nanobody as titrated ligand; PBS+ (10 mM phosphate pH 7.4, 2.7 mM KCl, 137 mM NaCl, 0.005% Tween-20); premium coated capillaries; triplicates on 40 Monolith NT.115/NT.Pico instruments; means over instruments; analysed centrally with MOAA and PALMIST (hot region 0.5-1.5 s) and individually by users; fitted without correction for the …. To be noted: both partners purified.

Test [4] has the same target. The description is as above. Particulars: both partners purified. The source holds these as a separate data set.

One may read the Kd as the equilibrium constant for the complex coming apart. In the case of `CC(=O)N[C@H]1[C@H](O[C@H]2[C@H](O)[C@@H](NC(C)=O)C(O)O[C@@H]2CO)O[C@H](CO)[C@@H](O[C@@H]2O[C@H](CO)[C@@H](O)[C@H](O)[C@H]2NC(C)=O)[C@@H]1O` (stereo partly shown) [NAG3], the Kd in test [1] was approximately 4000 nM.

B1: anti-lysozyme nanobody: Cab-Lys3 with T101 of the CDR3 loop mutated to serine (VHH)
VHH: DVQLQASGGGSVQAGGSLRLSCAASGYTIGPYCMGWFRQAPGKEREGVAAINMGGGITYYADSVKGRFTISQDNAKNTVYLLMNSLEPEDTAIYYCAADSSIYASYYECGHGLSTGGYGYDSWGQGTQVTVSS
notes: parent chain is the VHH Cab-Lys3 (De Genst et al. 2002), with T101 in the CDR3 loop changed to serine; 14.2 kDa; also called NB; VHH; source: T7-Express E. coli (pET-22B), purified (Profinity IMAC, Superdex-75)
B1: the Kd in test [2] is 256 nM and 259 nM and 272 nM; in test [3], 1170 nM; in test [4] it was 111 nM and 119 nM and 76 nM.
